Laboratory results as given in US20120207760A1.

Assays:
Settings in all cases: remark: other sources report otherwise
[1] = target: T1, recombinant homotrimeric HA, A/swine/Ontario/01911-2/99 H4N6 (Influenza A virus A/swine/Ontario/01911-2/99 (H4N6)); assay: trimeric HA microarray, transfection set 2
[2] = target: T2, recombinant homotrimeric HA, A/Vietnam/1203/04 H5N1 (Influenza A virus A/Vietnam/1203/04 (H5N1)); assay: trimeric HA microarray, transfection set 2
[3] = target: T3, recombinant homotrimeric HA, A/South Carolina/1/18 H1N1 (Influenza A virus A/South Carolina/1/18 (H1N1)); assay: trimeric HA microarray, transfection set 2
[4] = target: T4, recombinant homotrimeric HA, A/California/4/09 H1N1 (Influenza A virus A/California/4/09 (H1N1)); assay: trimeric HA microarray, transfection set 2
[5] = target: T5, recombinant homotrimeric HA, A/Japan/305/57 H2N2 (Influenza A virus A/Japan/305/57 (H2N2)); assay: trimeric HA microarray, transfection set 2
[6] = target: T6, recombinant homotrimeric HA, A/chicken/Vietnam/NCVD-016/08 H5N1 (Influenza A virus A/chicken/Vietnam/NCVD-016/08 (H5N1)); assay: trimeric HA microarray, transfection set 2
[7] = target: T7, recombinant homotrimeric HA, A/Solomon Islands/3/06 H1N1 (Influenza A virus A/Solomon Islands/3/06 (H1N1)); assay: trimeric HA microarray, transfection set 2
[8] = target: T8, recombinant homotrimeric HA, A/common magpie/Hong Kong/5052/07 H5N1 (Influenza A virus A/common magpie/Hong Kong/5052/07 (H5N1)); assay: trimeric HA microarray, transfection set 2
[9] = target: T9, recombinant homotrimeric HA, A/Egypt/3300-NAMRU3/08 H5N1 (Influenza A virus A/Egypt/3300-NAMRU3/08 (H5N1)); assay: trimeric HA microarray, transfection set 2
[10] = target: T10, recombinant homotrimeric HA, A/Hong Kong/2108/03 H9N2 (Influenza A virus A/Hong Kong/2108/03 (H9N2)); assay: trimeric HA microarray, transfection set 2
[11] = target: T11, recombinant homotrimeric HA, A/Indonesia/5/05 H5N1 (Influenza A virus A/Indonesia/5/05 (H5N1)); assay: trimeric HA microarray, transfection set 2
[12] = target: T1, recombinant homotrimeric HA, …; assay: trimeric HA microarray, transfection set 5
[13] = target: T2, recombinant homotrimeric HA, …; assay: trimeric HA microarray, transfection set 5
[14] = target: T3, recombinant homotrimeric HA, A/South …; assay: trimeric HA microarray, transfection set 5
[15] = target: T4, recombinant homotrimeric HA, …; assay: trimeric HA microarray, transfection set 5
[16] = target: T5, recombinant homotrimeric HA, …; assay: trimeric HA microarray, transfection set 5
[17] = target: T7, recombinant homotrimeric HA, A/Solomon …; assay: trimeric HA microarray, transfection set 5
[18] = target: T11, recombinant homotrimeric HA, …; assay: trimeric HA microarray, transfection set 5
[19] = target: T1, recombinant homotrimeric HA, …; assay: trimeric HA microarray, transfection set 1
[20] = target: T2, recombinant homotrimeric HA, …; assay: trimeric HA microarray, transfection set 1
[21] = target: T3, recombinant homotrimeric HA, A/South …; assay: trimeric HA microarray, transfection set 1
[22] = target: T4, recombinant homotrimeric HA, …; assay: trimeric HA microarray, transfection set 1
[23] = target: T5, recombinant homotrimeric HA, …; assay: trimeric HA microarray, transfection set 1
[24] = target: T6, recombinant homotrimeric HA, …; assay: trimeric HA microarray, transfection set 1
[25] = target: T7, recombinant homotrimeric HA, A/Solomon …; assay: trimeric HA microarray, transfection set 1
[26] = target: T8, recombinant homotrimeric HA, A/common …; assay: trimeric HA microarray, transfection set 1
[27] = target: T9, recombinant homotrimeric HA, …; assay: trimeric HA microarray, transfection set 1
[28] = target: T10, recombinant homotrimeric HA, A/Hong …; assay: trimeric HA microarray, transfection set 1
[29] = target: T11, recombinant homotrimeric HA, …; assay: trimeric HA microarray, transfection set 1

B1: TCN-523 (5248_A17) (antibody, V domains shown)
VH: QVQLVQSGAEVKKPGSSVKVSCKASGGSFSNYAFSWVRQAPGQGLEWMGGTIPLLGTTNYAQKFQGRVTISADQFTSTAYMELGSLRSEDTAVYYCTRRKMTTAFDSWGQGTLVTVSS
VL: QPVLTQPPSASASLGASVTLTCTLSSAYSNYKVDWYQQRPGKGPRFVMRVGTGGIVGSKGDGIPDRFSVLGSGLNRYLTIKNIQEEDESDYHCGADHGSGSNFVSPYVFGGGTKLTVL
Trimeric HA Binding RLU [1]: 82 RLU
Trimeric HA Binding RLU [2]: 26200 RLU
Trimeric HA Binding RLU [3]: 25500 RLU
Trimeric HA Binding RLU [4]: 18700 RLU
Trimeric HA Binding RLU [5]: 882 RLU
Trimeric HA Binding RLU [6]: 17600 RLU
Trimeric HA Binding RLU [7]: 3270 RLU
Trimeric HA Binding RLU [8]: 7210 RLU
Trimeric HA Binding RLU [9]: 30700 RLU
Trimeric HA Binding RLU [10]: 18 RLU
Trimeric HA Binding RLU [11]: 24500 RLU
Trimeric HA Binding RLU [12]: 1700 RLU
Trimeric HA Binding RLU [13]: 27800 RLU
Trimeric HA Binding RLU [14]: 52000 RLU
Trimeric HA Binding RLU [15]: 34400 RLU
Trimeric HA Binding RLU [16]: 22000 RLU
Trimeric HA Binding RLU [17]: 37600 RLU
Trimeric HA Binding RLU [18]: 55000 RLU
Trimeric HA Binding RLU [19]: 49 RLU
Trimeric HA Binding RLU [20]: 80 RLU
Trimeric HA Binding RLU [21]: 26400 RLU
Trimeric HA Binding RLU [22]: 17700 RLU
Trimeric HA Binding RLU [23]: 191 RLU
Trimeric HA Binding RLU [24]: 10800 RLU
Trimeric HA Binding RLU [25]: 6780 RLU
Trimeric HA Binding RLU [26]: 6240 RLU
Trimeric HA Binding RLU [27]: 25500 RLU
Trimeric HA Binding RLU [28]: 41 RLU
Trimeric HA Binding RLU [29]: 18500 RLU

B2: TCN-504 (3251_K17) (antibody, V domains shown)
VH: QVQLQESGPGLVKPSETLSLTCAVSGVSISNIDFYWGWIRQPPGKGLEWIGNIYYTGITFYNPSLSSRVAISIDTSKNQFSLTLTSVTAADTAMYYCARHYGDSEAINDAFDIWGQGTMLTVSS
VL: EIVMTQSPATLSVSPGERATLSCRASQSVGNSLAWYQQRPGQAPRLLIYGASTRATGIPPRFSGSGSGTEFTLTISSLQTEDFAVYYCQQYINWRPLSFGGGTKVEIK
Trimeric HA Binding RLU [1]: 32500 RLU
Trimeric HA Binding RLU [2]: 15000 RLU
Trimeric HA Binding RLU [3]: 24700 RLU
Trimeric HA Binding RLU [4]: 15600 RLU
Trimeric HA Binding RLU [5]: 22600 RLU
Trimeric HA Binding RLU [6]: 27300 RLU
Trimeric HA Binding RLU [7]: 31400 RLU
Trimeric HA Binding RLU [8]: 16800 RLU
Trimeric HA Binding RLU [9]: 21400 RLU
Trimeric HA Binding RLU [10]: 23 RLU
Trimeric HA Binding RLU [11]: 19700 RLU
Trimeric HA Binding RLU [12]: 54800 RLU
Trimeric HA Binding RLU [13]: 21500 RLU
Trimeric HA Binding RLU [14]: 32000 RLU
Trimeric HA Binding RLU [15]: 17600 RLU
Trimeric HA Binding RLU [16]: 23300 RLU
Trimeric HA Binding RLU [17]: 30100 RLU
Trimeric HA Binding RLU [18]: 18500 RLU
Trimeric HA Binding RLU [19]: 26500 RLU
Trimeric HA Binding RLU [20]: 1300 RLU
Trimeric HA Binding RLU [21]: 21500 RLU
Trimeric HA Binding RLU [22]: 18300 RLU
Trimeric HA Binding RLU [23]: 15100 RLU
Trimeric HA Binding RLU [24]: 27800 RLU
Trimeric HA Binding RLU [25]: 29800 RLU
Trimeric HA Binding RLU [26]: 29700 RLU
Trimeric HA Binding RLU [27]: 16100 RLU
Trimeric HA Binding RLU [28]: 78 RLU
Trimeric HA Binding RLU [29]: 16600 RLU
